Assay results from PMC3790820, “A Rapid and High-Throughput Quantitation Assay of the Nuclear Factor κB Activity Using Fluorescence Correlation Spectroscopy in the Setting of Clinical Laboratories”.

Key:
NF-kB p50 (hr-p50) [1] = molecular target: T1, NF-kB p50 (hr-p50) (human (recombinant), UniProt P19838 1-433); test: competition (FCS); 868.0 us at 1 nM, 495.8 us at 50 nM competitor; TAMRA probe N1; 50 mM Tris-HCl pH 7.5, 250 mM NaCl, 1 mM EDTA, 2.5 mM DTT, 10% glycerol, 1 nM TAMRA probe, 1 ug poly(dI-dC), room temperature, 10 min; conditions: protein: commercial; chain copies: 2; hairpin, 22 bp stem, AAAA loop
T1 sequence (P19838 1-433): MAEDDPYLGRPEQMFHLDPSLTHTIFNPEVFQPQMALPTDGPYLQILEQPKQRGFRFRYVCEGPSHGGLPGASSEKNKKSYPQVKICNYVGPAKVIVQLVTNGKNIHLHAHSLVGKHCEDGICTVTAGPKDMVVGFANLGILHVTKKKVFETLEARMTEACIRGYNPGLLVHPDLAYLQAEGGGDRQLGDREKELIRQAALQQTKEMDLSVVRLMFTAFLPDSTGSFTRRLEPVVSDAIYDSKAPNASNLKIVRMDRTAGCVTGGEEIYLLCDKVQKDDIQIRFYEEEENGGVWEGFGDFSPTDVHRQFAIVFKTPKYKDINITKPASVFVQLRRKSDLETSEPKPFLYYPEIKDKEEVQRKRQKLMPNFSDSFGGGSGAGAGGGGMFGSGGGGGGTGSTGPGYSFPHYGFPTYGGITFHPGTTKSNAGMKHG

NF-kB p50 (hr-p50) [2] = molecular target: T1, NF-kB p50 (hr-p50); test: competition (FCS); little effect at 1 and 50 nM competitor; TAMRA probe N1; 50 mM Tris-HCl pH 7.5, 250 mM NaCl, 1 mM EDTA, 2.5 mM DTT, 10% glycerol, 1 nM TAMRA probe, 1 ug poly(dI-dC), room temperature, 10 min; conditions: protein: commercial; chain copies: 2; hairpin, 21 bp stem, AAAA loop

| Binder | binding result (NF-kB p50 (hr-p50) [1]) | binding result (NF-kB p50 (hr-p50) [2]) |
| --- | --- | --- |
| AGTTGAGGGGACTTTCCCAGGCAAAAGCCTGGGAAAGTCCCCTCAACT (structured_DNA) [wild-type competitor stem-loop] | binds | – |
| CAGGCGCGTTTTGACCATCTTAAAAAAGATGGTCAAAACGCGCCTG (structured_DNA) [nonspecific competitor stem-loop] | – | no binding |
